Measurements: patent US20260335397A1, “TREATMENT OF GEOGRAPHIC ATROPHY” (Apellis Pharmaceuticals, Inc., priority 2022, published 2026)

Experiments:
Format in all cases: in vivo, human
[1] = tested on: geographic atrophy (GA) secondary to age-related macular degeneration (AMD); assay: Post-hoc SD-OCT analysis of PR and RPE loss, OAKS and DERBY studies; details: 12 months; for RPE loss, difference EM vs EOM / PR loss, difference EM vs EOM: monthly vs every other month; for PR loss, difference EM vs. Sham Pooled / RPE loss, difference EM vs. Sham Pooled: monthly
Description: (§1) LS means estimated from MMRM analysis. The mITT population was used for the analysis, defined as all randomized patients who received at least 1 injection of pegcetacoplan or sham and had baseline and at least one post-baseline value of GA lesion area in the study eye. FOV=field of view; LS=least square; M=month; mITT=modified intent-to-treat; MMRM=mixed-effects model for repeated measures; PEOM=pegcetacoplan every other month; PM=pegcetacoplan monthly; PR=photoreceptor; RPE=retinal pigment epithelium; SE=standard error.
as §1, with “FOV-field” for “FOV=field”
Spectral-domain optical coherence tomography (OCT) allows for cross sectional visualization of the neurosensory retina, including the photoreceptor (PR) layer, as well as the retinal pigment epithelium (RPE) and other retinal structures. […] A post-hoc analysis that assessed the ability of pegcetacoplan treatment to reduce PR and RPE loss in patients with GA was performed using SD-OCT images acquired from a subgroup of patients in the OAKS and DERBY studies, namely those for whom Spectralis SD-OCT images were available. Automated, deep learning based segmentation of RPE loss and PR thickness on SD-OCT volumes acquired at baseline and months 2, 4, 6, 8, 10, and 12 was performed according to previously published methods. The difference in the change from baseline of RPE loss area and of PR loss area (determined based on PR thickness measurements) was compared among the monthly, every other month, and pooled sham treatment arms using LS Mean MMRM modeling. […] The magnitude of the treatment effects at 12 months, as determined using LS mean MMRM modeling, are summarized below.

[2] = tested on: geographic atrophy (GA) secondary to age-related macular degeneration (AMD); assay: Post-hoc analysis of BCVA and VFQ-25 by lesion distance from foveal center, OAKS and DERBY; details: lesions ≥250 μm from foveal center, 24 months
Procedure: This Example describes a post-hoc analysis of results from the OAKS and DERBY studies described in Example 1. Functional data by lesion distance from foveal center were assessed over 24 months.
In the patient subgroup having lesions ≥250 μm away from the foveal center, pegcetacoplan slowed vision loss and improved quality of life in patients. […] This subgroup included patients in the mITT sample with non-missing baseline measurements of RPE central 3 mm occupancy (C30) in regions 1-5 and lesion distance from fovea center. Mean changes were calculated among patients with BCVA measurements at each timepoint and thus samples varied across outcomes shown with no imputation for missing data. Adjusted differences from bootstrapped inverse probability weighted regressions controlling for baseline C30 in regions 1-5, study and fellow eye GA characteristics, study eye visual acuity, and patient characteristics.
This subgroup included patients in the mITT sample with non-missing baseline measurements of RPE central 3 mm occupancy (C3O) in regions 1-5 and lesion distance from fovea center. Mean changes were calculated among patients with BCVA measurements at each timepoint and thus samples varied across outcomes shown with no imputation for missing data. […]

[3] = Phase 3 safety: TEAEs and tolerability, OAKS and DERBY; details: for Endophthalmitis (serious ocular TEAE), % / Endophthalmitis (serious ocular TEAE), M (number of events): infectious and non-infectious
Procedure: All randomized subjects returned every month to the clinical site for assessments and additional pegcetacoplan or sham injections according to their randomization scheme until Month 12. From Month 12 onwards, subjects return to the clinical site based on their randomized treatment schedule (monthly or EOM) and follow the treatment regimen and assessments outlined in the Visit Schedule until Month 24. Safety was assessed throughout the study by a number of evaluations including: monitoring of AEs, preinjection and postinjection monitoring, blood and urine samples collected, physical examination, vital signs, and follow-up phone calls. Blood samples were also be collected for anti-therapeutic antibodies, genotyping, and clinical repository (if the subject consented to this portion).
Safety endpoints included incidence and severity of ocular and systemic treatment-emergent adverse events; incidence of ADA directed against pegcetacoplan peptide or PEG; incidence of new active CNV in the study eye; incidence of new onset of subclinical CNV in the study eye; incidence of subjects who lost letters based on NL-BCVA categories (≥15, ≥15-<30, ≥30 ETDRS letters); change/shift from baseline in clinical labs and incidence of abnormal lab values; change from baseline in vital signs and incidence of abnormal vital sign results; shift from baseline in ocular examination assessments including slit-lamp examination and indirect ophthalmoscopy; change from baseline in Intra Ocular Pressure (IOP) and incidence of IOP above specified thresholds; and change/shift from baseline in ocular imaging assessments (including specular microscopy; select sites).
The Safety set consisted of all subjects randomized who received at least one injection of pegcetacoplan or sham. Subjects were analyzed according to the actual treatment received. […] This population was used for all safety analyses.

[4] = DERBY, PEOM (N = 208), 24 months
[5] = OAKS, PEOM (N = 212), 24 months

Q: With “Poly(oxy-1,2-ethanediyl), α-hydro-ω-hydroxy-, 15,15′-diester with N-acetyl-L-isoleucyl-L-cysteinyl-L-valyl-1-methyl-L-tryptophyl-L-glutaminyl-L-α-aspartyl-L-tryptophylglycyl-L-alanyl-L-histidyl-L-arginyl-L-cysteinyl-L-threonyl-2-[2-(2-aminoethoxy)ethoxy]acetyl-N^6-carboxy-L-lysinamide cyclic (2->12)-(disulfide) [pegcetacoplan]” as the substance, how does the “PR loss and RPE loss compared with sham” value ([1]; DERBY and OAKS, monthly and every other month) read?
A: statistically significant reduction in PR loss and RPE loss at 12 months

Q: And the “PR loss, difference every other month vs. Sham pooled” value ([1]; DERBY, every other month, p<0.0001)?
A: −61.0%

Q: And the “RPE loss, difference every other month vs. Sham pooled” value ([1]; DERBY, every other month, p<0.0065)?
A: −20.4%

Q: What about the “RPE loss, difference EM vs EOM” value ([1]; DERBY, p=0.0103) of the same substance?
A: −19.6%

Q: What about the “PR loss, difference EM vs EOM” value ([1]; DERBY, p=0.0785) of the same substance?
A: −42%

Q: And the “PR loss, difference EM vs. Sham Pooled” value ([1]; DERBY, p<0.0001)?
A: −77.4%

Q: And the “RPE loss, difference EM vs. Sham Pooled” value ([1]; DERBY, p<0.0001)?
A: −36.0%

Q: What about the “PR Loss, difference EOM vs. Sham pooled” value ([1]; OAKS, every other month, p<0.0001) of the same substance?
A: −47.7%

Q: And the “RPE loss, difference every other month vs. Sham pooled” value ([1]; OAKS, every other month, p=0.0342)?
A: −14.8%

Q: And the “PR loss, difference EM vs EOM” value ([1]; OAKS, p=0.0049)?
A: −51.3%

Q: And the “RPE loss, difference EM vs EOM” value ([1]; OAKS, p=0.5282)?
A: −5.7%

Q: What about the “PR loss, difference EM vs. Sham Pooled” value ([1]; OAKS, p<0.0001) of the same substance?
A: −74.5%

Q: And the “RPE loss, difference EM vs. Sham Pooled” value ([1]; OAKS, p=0.0070)?
A: −19.7%

Q: And the “quality of life assessed by VFQ-25, better relative to sham” value [2]?
A: over 4 points

Q: What about the “BCVA change from baseline, relative to sham” value ([2]; monthly and every other month combined, baseline BCVA 73 (sham 75)) of the same substance?
A: less of a BCVA change from baseline at 24 months

Q: And the “All TEAEs, %” value [3, 4]?
A: (86.5%)

Q: What about the “Iridocyclitis (serious ocular TEAE), %” value [3, 4] of the same substance?
A: 0.5%

Q: What about the “Iridocyclitis (serious ocular TEAE), M (number of events)” value [3, 4] of the same substance?
A: 1 M

Q: What about the “Non-ocular TEAEs, patients, %” value [3, 4] of the same substance?
A: (68.3%)

Q: And the “Ocular TEAEs in study eye, patients, %” value [3, 4]?
A: (51.9%)

Q: And the “Serious ocular TEAEs in the study eye, %” value [3, 4]?
A: 1.0%

Q: And the “Serious ocular TEAEs in the study eye, M (number of events)” value (shortened to “Serious ocular TEAEs in the study eye, M”) [3, 4]?
A: 4 M

Q: And the “Uveitis (serious ocular TEAE), %” value [3, 4]?
A: 1.0%

Q: And the “Uveitis (serious ocular TEAE), M (number of events)” value [3, 4]?
A: 2 M

Q: And the “Visual acuity reduced (serious ocular TEAE), %” value [3, 4]?
A: 0.5%

Q: What about the “Visual acuity reduced (serious ocular TEAE), M (number of events)” value [3, 4] of the same substance?
A: 1 M

Q: And the “All TEAEs, %” value ([3]; DERBY, PM (N = 206), 24 months)?
A: (86.4%)

Q: What about the “Non-ocular TEAEs, patients, %” value ([3]; DERBY, PM (N = 206), 24 months) of the same substance?
A: (79.1%)

Q: What about the “Ocular TEAEs in study eye, patients, %” value ([3]; DERBY, PM (N = 206), 24 months) of the same substance?
A: (60.7%)

Q: What about the “Optic ischemic neuropathy (serious ocular TEAE), %” value ([3]; DERBY, PM (N = 206), 24 months) of the same substance?
A: 0.5%

Q: What about the “Optic ischemic neuropathy (serious ocular TEAE), M (number of events)” value ([3]; DERBY, PM (N = 206), 24 months) of the same substance?
A: 1 M

Q: What about the “Retinal tear (serious ocular TEAE), %” value ([3]; DERBY, PM (N = 206), 24 months) of the same substance?
A: 0.5%

Q: What about the “Retinal tear (serious ocular TEAE), M (number of events)” value ([3]; DERBY, PM (N = 206), 24 months) of the same substance?
A: 1 M

Q: And the “Serious ocular TEAEs in the study eye, %” value ([3]; DERBY, PM (N = 206), 24 months)?
A: 1.9%

Q: What about the “Serious ocular TEAEs in the study eye, M” value ([3]; DERBY, PM (N = 206), 24 months) of the same substance?
A: 4 M

Q: What about the “Vitritis (serious ocular TEAE), %” value ([3]; DERBY, PM (N = 206), 24 months) of the same substance?
A: 1.0%

Q: And the “Vitritis (serious ocular TEAE), M (number of events)” value ([3]; DERBY, PM (N = 206), 24 months)?
A: 2 M

Q: What about the “All TEAEs, %” value [3, 5] of the same substance?
A: (88.2%)

Q: What about the “Non-ocular TEAEs, patients, %” value [3, 5] of the same substance?
A: (77.8%)

Q: And the “Ocular TEAEs in study eye, patients, %” value [3, 5]?
A: (58.0%)

Q: What about the “Retinal detachment (serious ocular TEAE), %” value [3, 5] of the same substance?
A: 0.5%

Q: And the “Retinal detachment (serious ocular TEAE), M (number of events)” value [3, 5]?
A: 1 M

Q: And the “Serious ocular TEAEs in the study eye, %” value [3, 5]?
A: 1.9%

Q: And the “Serious ocular TEAEs in the study eye, M” value [3, 5]?
A: 4 M

Q: What about the “Endophthalmitis (serious ocular TEAE), %” value [3, 5] of the same substance?
A: 1.4%

Q: What about the “Endophthalmitis (serious ocular TEAE), M (number of events)” value [3, 5] of the same substance?
A: 3 M

Q: What about the “All TEAEs, %” value ([3]; OAKS, PM (N = 213), 24 months) of the same substance?
A: (90.1%)

Q: And the “Hyphema (serious ocular TEAE), %” value ([3]; OAKS, PM (N = 213), 24 months)?
A: 0.5%

Q: And the “Hyphema (serious ocular TEAE), M (number of events)” value ([3]; OAKS, PM (N = 213), 24 months)?
A: 1 M

Q: What about the “Non-ocular TEAEs, patients, %” value ([3]; OAKS, PM (N = 213), 24 months) of the same substance?
A: (81.7%)

Q: What about the “Ocular TEAEs in study eye, patients, %” value ([3]; OAKS, PM (N = 213), 24 months) of the same substance?
A: (62.4%)

Q: What about the “Optic ischemic neuropathy (serious ocular TEAE), %” value ([3]; OAKS, PM (N = 213), 24 months) of the same substance?
A: 0.9%

Q: And the “Optic ischemic neuropathy (serious ocular TEAE), M (number of events)” value ([3]; OAKS, PM (N = 213), 24 months)?
A: 2 M

Q: What about the “Papilledema (serious ocular TEAE), %” value ([3]; OAKS, PM (N = 213), 24 months) of the same substance?
A: 0.5%

Q: And the “Papilledema (serious ocular TEAE), M (number of events)” value ([3]; OAKS, PM (N = 213), 24 months)?
A: 1 M

Q: What about the “Retinal detachment (serious ocular TEAE), %” value ([3]; OAKS, PM (N = 213), 24 months) of the same substance?
A: 0.5%

Q: And the “Retinal detachment (serious ocular TEAE), M (number of events)” value ([3]; OAKS, PM (N = 213), 24 months)?
A: 1 M

Q: What about the “Serious ocular TEAEs in the study eye, %” value ([3]; OAKS, PM (N = 213), 24 months) of the same substance?
A: 2.3%

Q: What about the “Serious ocular TEAEs in the study eye, M” value ([3]; OAKS, PM (N = 213), 24 months) of the same substance?
A: 7 M

Q: And the “Endophthalmitis (serious ocular TEAE), %” value ([3]; OAKS, PM (N = 213), 24 months)?
A: 0.9%

Q: What about the “Endophthalmitis (serious ocular TEAE), M (number of events)” value ([3]; OAKS, PM (N = 213), 24 months) of the same substance?
A: 2 M

Q: And the tolerability ([3]; both Phase 3 studies)?
A: well tolerated
